Results as given in US11090322B2, “Anthracycline disulfide intermediates, antibody-drug conjugates and methods” (priority 2014, dated 2021).

B1: ADC-110 (conjugate)
VH: QVQLVQSGAEVKKPGSSVKVSCKASGGIFSNHAISWVRQAPGQGLEWMGGIIPIFGTANYAQKFQGRVTITADESTSTAFMELSSLRSEDTAVYYCAREWADVFDIWGQGTMVTVSS
VL: EIVLTQSPLSLPVTPGEPASISCRSSQSLLHSNGYNYLDWYLQKPGQSPQLLIYLGVNSVSGVPDRFSGSGSGTDFTLKISRVEAEDVGVYYCMQALQTPWTFGQGTKVEIK

Legend:
[1] = test system: tumor models; conditions: cited from earlier work
[2] = cited from earlier work
[3] = test system: SK-BR-3 cells; experiment: In vitro cell proliferation assay (CellTiter-Glo), SK-BR-3 cell viability at 5 days; format: cell-based; conditions: SK-BR-3, 5 days, concentrations in μg/ml; FIG. 1 and FIG. 2
Procedure: Generally, the cytotoxic or cytostatic activity of an antibody-drug conjugate (ADC) is measured by: exposing mammalian cells having receptor proteins, e.g. HER2, to the antibody of the ADC in a cell culture medium; culturing the cells for a period from about 6 hours to about 5 days; and measuring cell viability. Cell-based in vitro assays were used to measure viability (proliferation), cytotoxicity, and induction of apoptosis (caspase activation) of the ADC of the invention.
The CellTiter-Glo® Luminescent Cell Viability Assay is a commercially available (Promega Corp., Madison, Wis.), homogeneous assay method based on the recombinant expression of Coleoptera luciferase (U.S. Pat. Nos. 5,583,024; 5,674,713; 5,700,670). This cell proliferation assay determines the number of viable cells in culture based on quantitation of the ATP present, an indicator of metabolically active cells (Crouch et al (1993) J. Immunol. Meth. 160:81-88; U.S. Pat. No. 6,602,677). […]
The homogeneous “add-mix-measure” format results in cell lysis and generation of a luminescent signal proportional to the amount of ATP present. […] Viable cells are reflected in relative luminescence units (RLU). […]
Efficacy of ADC was measured by a cell proliferation assay employing the following protocol ([…] GLO™ Luminescent Cell Viability Assay, Promega Corp. Technical Bulletin TB288; Mendoza et al (2002) Cancer Res. 62:5485-5488): • 1. […]

[4] = test system: MMTV-HER2 Fo5 transgenic mammary tumors; experiment: In vivo tumor growth inhibition, MMTV-HER2 Fo5 transgenic mammary tumor allograft; design: species or system CRL nu/nu mice; conditions: FIG. 5
Procedure: For example, the in vivo efficacy of an anti-HER2 ADC of the invention can be measured by a high expressing HER2 transgenic explant mouse model (Phillips et al (2008) Cancer Res. 68:9280-90). […] Subjects were treated once with ADC at certain dose levels (mg/kg) and placebo buffer control (Vehicle) and monitored over two weeks or more to measure the time to tumor doubling, log cell kill, and tumor shrinkage.
(§1) Tumors were established and allowed to grow to 150-200 mm^3 in volume (as measured using calipers) before a single treatment on day 0. Tumor volume was measured using calipers according to the formula: V (mm^3)=0.5A×B^2, where A and B are the long and short diameters, respectively. […] Data collected from each experimental group (10 mice per group) were expressed as mean±SE.
The Fo5 mouse mammary tumor model was employed to evaluate the in vivo efficacy of antibody-drug conjugates of the invention after single dose intravenous injections, and as described previously (Phillips G D L, Li G M, Dugger D L, et al. Targeting HER2-Positive Breast Cancer with Trastuzumab-DM1, an Antibody-Cytotoxic Drug Conjugate. (2008) Cancer Res. 68:9280-90), incorporated by reference herein. […]

[5] = test system: KPL4 tumor model; experiment: In vivo tumor growth inhibition, KPL4 tumor model; design: species or system scid beige mice; conditions: single IV treatment Day 0 at 3 mg/kg; non specific anti-CD33 controls; FIG. 4
Procedure: When tumors reached a mean tumor volume of 100-250 mm3, they were grouped into 9 groups of 8-10 mice each. A single treatment was administered intravenously via the tail vein on Day 0 as follows: (01) Vehicle: Histidine Buffer #8: 20 mM Histidine Acetate, pH 5.5, 240 mM Sucrose, 0.02% PS 20, (02) Thio Hu anti-Her2 7C2 LC K149C-(ethylmaleimide) 0.3 mg/kg 138, (03) Thio Hu anti-Her2 7C2 LC K149C-(ethylmaleimide) 1 mg/kg 138, (04) Thio Hu anti-Her2 7C2 LC K149C-(ethylmaleimide) 3 mg/kg 138, (05) Thio Hu anti-Her2 7C2 LC K149C-(LD-57) 0.3 mg/kg 109, (06) Thio Hu anti-Her2 7C2 LC K149C-(LD-57) 1 mg/kg 109, (07) Thio Hu anti-Her2 7C2 LC K149C-(LD-57) 3 mg/kg 109, (08) Thio Hu Anti-CD33 15G15.3 LC K149C-(ethylmaleimide) 3 mg/kg 139, and (09) Thio Hu anti-CD33 15G15.3 LC K149C-(LD-57) 3 mg/kg 110.
as §1

Molecule	efficacy in vivo tumor models [1]	cytotoxicity in vitro relative to nemorubicin and doxorubicin [2]	cell-killing activity (in vitro cell viability versus concentration) [3]	tumor growth inhibition ([4]; dosing once IV at 1 mg/kg)	tumor growth inhibition ([4]; dosing once IV at 3 mg/kg)	tumor growth inhibition [5]
COc1cccc2c1C(=O)c1c(O)c3c(c(O)c1C2=O)C[C@@](O)(C(=O)CO)C[C@@H]3O[C@H]1C[C@H]2[C@H](O[C@@H]3[C@@H](OC)OCCN32)[C@H](C)O1 [PNU-159682, 3′-deamino-3″,4′-anhydro-[2″(S)-methoxy-3″(R)-oxy-4″-morpholinyl]doxorubicin]	effective	remarkably more cytotoxic than nemorubicin and doxorubicin	–	–	–	–
B1	–	–	less activity	little tumor growth inhibition	modest tumor growth inhibition	little or no tumor growth inhibition
